Experimental findings from patent publication US20240409662A1, “ANTIBODY MASKS AND USES THEREOF” (Vibrant Pharma Limited, priority 2021, published 2024) are described below.

Entries after “also recorded” stand apart in the source; their conditions may differ. No end group written: not given here.

The target in test [1] is SP34. Put plainly: BLI affinity of biotinylated N-terminal CD3ε peptides (on SA biosensor) to SP34 as analyte. It is filed as binding. The conditions noted are these: peptide immobilized. An excerpt: Bio-Layer Interferometry (BLI) technique was employed for the measurement of protein-protein interactions in this study. A Octet Red96 system and Streptavidin (SA) or AHC biosensors (ForteBio, Fremont) were utilized.
(§1) To measure the binding of SP34 to CD3ε peptides, the peptides were immobilized on the SA biosensor through SA-biotin interaction according the manufacturer's instruction. After running PBS with 0.01% Tween-20 buffer to stabilize baselines, the biosensors were dipped into solid black 96-well plates (Greiner Bio-One, Cat. #65520, Monroe, North Carolina, USA) containing SP34 in indicated concentrations. Association and dissociation were measured accordingly, and binding kinetics were calculated using ForteBio's Data Analysis 12.0 software.
BLI technology was employed to measure the affinity of the six peptides to SP34 with a ForteBio Red96. These peptides were immobilized on the SA Biosensor and their affinities were measured using SP34 as the analyte. The binding sensorgrams indicate that SP34 binds to all six peptides with very similar profiles (FIG. 1C). The affinities of the bindings were determined as between 1-4 nM (Table 1), very similar to that of CD3δε/SP34 binding. […] It is further hypothesized that a N-terminal CD3ε peptide […] can bind to SP34 as well.

Test [2] concerns SP34. Put plainly: ELISA of SP34 binding to coated CD3ε1-27-Fc fusion proteins. The following applies: FIG. 2A. The method, then:
Examination of binding of SP34 to CD3ε1-27-Fc fusion proteins was conducted by ELISA. 100 μL of 2 μg/mL fusion protein was coated on 96 well microtiter plate (Nunc) at room temperature (RT) overnight. After blocking the wells with 3% milk-PBS (3% non-fat milk in 137 mM NaCl, 2.7 mM KCl, 10 mM Na2HPO4 1.8 mM KH2PO4) at RT for 1 hr and 6 washes with 0.05% PBST (0.05% Tween-20 in PBS), SP34 (5 μg/mL, 50 μL/well) was added to the wells as the first antibody and allowed for incubation at 37° C. for 1 hr. The wells were washed for 6 times with PBST after the incubation, and the second antibody horseradish peroxidase (HRP) labeled anti-Kappa light chain (Sigma, 1:6,000 dilution, 50 μL/well) was added and allowed for incubation at RT for 50 min. After 6 washes with PBST, 3,3′, 5,5′-Tetramethylbenzidine (TMB) was added to develop color, and 1M HCl was then added to stop the reaction. ELISA titer was read with a microtiter plate reader (Thermo Fisher) at 450 nm wavelength.

The target of the next test is T1, CD3ε-p2 (human).
T1 construct: also called 8 AA N-terminal CD3ε peptide
T1 peptide: QDGNEEMGGGGGS-biotin
The test is described as follows: BLI, biotinylated peptide on SA biosensor, SP34 as analyte. The method, then:
as §1
(§2) BLI technology was employed to measure the affinity of the six peptides to SP34 with a ForteBio Red96. These peptides were immobilized on the SA Biosensor and their affinities were measured using SP34 as the analyte. The binding sensorgrams indicate that SP34 binds to all six peptides with very similar profiles (FIG. 1C). […] It is further hypothesized that a N-terminal CD3ε peptide […] can bind to SP34 as well.

Another test has as its target T2, CD3ε-p3 (human).
T2 construct: also called 11 AA N-terminal CD3ε peptide
T2 peptide: QDGNEEMGGITGGGGS-biotin
The test is described as above. The method, then:
as §1, §2

The next test has as its target T3, CD3ε-p5 (human, biotinylation at the C-terminus).
T3 construct: also called 17 AA N-terminal CD3ε peptide
T3 peptide: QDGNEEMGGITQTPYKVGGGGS
The description is as above. The method, then:
as §1, §2

The target of the next test is T4, CD3ε-p7 (human, biotinylation at the C-terminus).
T4 construct: also called 23 AA N-terminal CD3ε peptide
T4 peptide: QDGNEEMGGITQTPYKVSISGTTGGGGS
The test is described as above. The method, then: as §1, §2

For a further test, the target named is T5, CD3ε-p6 (human, biotinylation at the C-terminus).
T5 construct: also called 20 AA N-terminal CD3ε peptide
T5 peptide: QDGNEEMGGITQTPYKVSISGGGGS
Described as above. Here is the method:
as §1, §2

A further test deals with T6, CD3ε-p1 (human).
T6 construct: also called 5 AA N-terminal CD3ε peptide
T6 peptide: QDGNEGGGGS-biotin
The description is as above. The method, then: as §1, §2

Another test concerns the target CD3δε (Homo sapiens, UniProt P07766). The test is described as follows: BLI (Octet Red96), SP34 on AHC biosensor, CD3δε as analyte.
The next test has as its target CD3 on human PBMC (human, UniProt P07766 23-207). Put plainly: cell-based or functional assay.

Chain of CD3 on human PBMC (P07766 23-207): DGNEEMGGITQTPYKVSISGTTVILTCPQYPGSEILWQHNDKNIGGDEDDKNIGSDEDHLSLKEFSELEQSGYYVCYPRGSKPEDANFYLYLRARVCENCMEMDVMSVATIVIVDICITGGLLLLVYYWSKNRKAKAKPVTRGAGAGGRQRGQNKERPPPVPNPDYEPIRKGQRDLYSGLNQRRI

As for “CD3ε-p5: N-terminal human CD3ε peptide with C-terminal GGGGS linker, biotinylated (QDGNEEMGGITQTPYKVGGGGS; not fully specified (C-terminus); also: biotinylated)”, at SP34 [1], the Kd came out at 1.8 nM, the ka amounted to 54000 M⁻¹ s⁻¹ and the kd worked out at 9.8e-05 s⁻¹.

With “G3A: G3A mutant of the CD3ε1-27-Fc fusion protein”, the “binding of SP34 to fusion protein” value in the test with SP34 [2] was “significant binding; also recorded: maintained binding”.

As to “CD3ε-p6: N-terminal human CD3ε peptide with C-terminal GGGGS linker, biotinylated (QDGNEEMGGITQTPYKVSISGGGGS; not fully specified (C-terminus); also: biotinylated)”, on SP34 [1], the Kd amounted to 3.5 nM, the ka was 46000 M⁻¹ s⁻¹ and the kd came out at 0.00016 s⁻¹.

As for “D2E: D2E mutant of the CD3ε1-27-Fc fusion protein”, in the test with SP34 [2], the “binding of SP34 to fusion protein” value is on record as “significant binding; also recorded: maintained binding”.

For the molecule “D2C: D2C mutant of the CD3ε1-27-Fc fusion protein”, the “binding of SP34 to fusion protein” value in the test with SP34 [2] is recorded as “significant binding; also recorded: maintained binding”.

“D2N: D2N mutant of the CD3ε1-27-Fc fusion protein”: the “binding of SP34 to fusion protein” value in the test with SP34 [2] was “significant binding; also recorded: maintained binding”.

“CD3ε-p2: N-terminal human CD3ε peptide with C-terminal GGGGS linker, biotinylated (QDGNEEMGGGGGS; not fully specified (C-terminus); also: biotinylated)”: at SP34 [1], the dissociation constant (Kd) was 3.6 nM, the ka worked out at 65000 M⁻¹ s⁻¹ and the kd was found to be 0.00024 s⁻¹.

On SP34 [1], “CD3ε-p3: N-terminal human CD3ε peptide with C-terminal GGGGS linker, biotinylated (QDGNEEMGGITGGGGS; not fully specified (C-terminus); also: biotinylated)” gave a Kd of 2 nM, a ka of 56000 M⁻¹ s⁻¹ and a kd of 0.00011 s⁻¹.

“D2G: D2G mutant of the CD3ε1-27-Fc fusion protein”: the “binding of SP34 to fusion protein” value with SP34 [2] is on record as “significant binding; also recorded: maintained binding”.

Consider “CD3ε-p7: N-terminal human CD3ε peptide with C-terminal GGGGS linker, biotinylated (QDGNEEMGGITQTPYKVSISGTTGGGGS; not fully specified (C-terminus); also: biotinylated, site not given here)”, for which, at SP34 [1], the affinity, expressed as Kd, was 1.3 nM; the ka was determined as 100000 M⁻¹ s⁻¹; the kd was found to be 0.00013 s⁻¹.

B1: SP34 chimeric antibody (antibody, V domains shown)
VH: EVKLLESGGGLVQPKGSLKLSCAASGFTFNTYAMNWVRQAPGKGLEWVARIRSKYNNYATYYADSVKDRFTISRDDSQSILYLQMNNLKTEDTAMYYCVRHGNFGNSYVSWFAYWGQGTLVTVSS
VL: QAVVTQESALTTSPGETVTLTCRSSTGAVTTSNYANWVQEKPDHLFTGLIGGTNKRAPGVPARFSGSLIGDKAALTITGAQTEDEAIYFCALWYSNLWVFGGGTKVEIK
notes: VH and VL fused to the constant regions of human IgG1
Take B1: the Kd with CD3ε-p2 was determined as 3.6 nM; with CD3ε-p3, 2 nM; with CD3ε-p5 it was 1.8 nM; with CD3ε-p7, 1.3 nM; with CD3ε-p6 it was 3.5 nM; in the test with CD3ε-p1, 0.99 nM. The dissociation constant Kd with CD3δε was 5.8 nM. In addition, the koff was 0.00024 s⁻¹ in the test with CD3ε-p2; 0.00011 s⁻¹ with CD3ε-p3; 9.8e-05 s⁻¹ in the test with CD3ε-p5; 0.00013 s⁻¹ with CD3ε-p7; 0.00016 s⁻¹ with CD3ε-p6; 0.00016 s⁻¹ with CD3ε-p1. The koff with CD3δε amounted to 0.0032 s⁻¹. In addition, the kon came out at 65000 M⁻¹ s⁻¹ with CD3ε-p2; 56000 M⁻¹ s⁻¹ with CD3ε-p3; 54000 M⁻¹ s⁻¹ with CD3ε-p5; 100000 M⁻¹ s⁻¹ with CD3ε-p7; 46000 M⁻¹ s⁻¹ with CD3ε-p6; 160000 M⁻¹ s⁻¹ in the test with CD3ε-p1. In the test with CD3δε, the kon worked out at 550000 M⁻¹ s⁻¹.

B2: MMP9-digested L5-D2E (bispecific antibody, not shown: small tags and cut ends)
heavy: B1 VH
light: B1 VL
chain: EVQLVESGGGFVQAGESLTLSCTSSTLTFTPYRMAWYRQAPGKQRDLVADISSGDGRTTNYADFAKGRFTISRDNIKNTVFLRMTNLKPEDTAVYYCNTFVSFVGIARSWGQGTQVTVSSESKYGPPCPPCPAPEAAGGPSVFLFPPKPKDTLMISRTPEVTCVVVDVSQEDPEVQFNWYVDGVEVHNAKTKPREEQFNSTYRVVSVLTVLHQDWLNGKEYKCKVSNKGLPSSIEKTISKAKGQPREPQVCTLPPSQEEMTKNQVSLSCAVKGFYPSDIAVEWESNGQPENNYKTTPPVLDSDGSFFLVSRLTVDKSRWQEGNVFSCSVMHEALHNRFTQKSLSLSL
In the case of B2, the “EC50 of M-TCE-induced killing of HT29 cells in the presence of human PBMC” value (“EC50 of M-TCE-induced killing … of human PBMC” for short) in the test with CD3 on human PBMC came to 0.013 nM.

B3: MMP9-digested L4-D2E (bispecific antibody, not shown: small tags and cut ends)
heavy: B1 VH
light: B1 VL
chain: B2 chain
On to B3, for which the “EC50 of M-TCE-induced killing … of human PBMC” value with CD3 on human PBMC is 0.011 nM.

B4: L5-D2E (bispecific antibody)
heavy: QEGNEESSGGSPLGLSSGGSEVKLLESGGGLVQPKGSLKLSCAASGFTFNTYAMNWVRQAPGKGLEWVARIRSKYNNYATYYADSVKDRFTISRDDSQSILYLQMNNLKTEDTAMYYCVRHGNFGNSYVSWFAYWGQGTLVTVSS
light: B1 VL
chain: B2 chain
As to B4, in the test with CD3 on human PBMC, the “Digested vs. masked (ratio of killing EC50)” value is 32 fold and the “EC50 of M-TCE-induced killing … of human PBMC” value stood at 0.418 nM.

B5: L6-D2E (bispecific antibody)
heavy: QEGNEESSGGGSPLGLSSGGGSEVKLLESGGGLVQPKGSLKLSCAASGFTFNTYAMNWVRQAPGKGLEWVARIRSKYNNYATYYADSVKDRFTISRDDSQSILYLQMNNLKTEDTAMYYCVRHGNFGNSYVSWFAYWGQGTLVTVSS
light: B1 VL
chain: B2 chain
Take B5: in the test with CD3 on human PBMC, the “Digested vs. masked (ratio of killing EC50)” value amounted to 32 fold and the “EC50 of M-TCE-induced killing … of human PBMC” value stood at 0.317 nM.

B6: L7-D2G (bispecific antibody)
heavy: QGGNEESSGGSGSPLGLSSGGSGSEVKLLESGGGLVQPKGSLKLSCAASGFTFNTYAMNWVRQAPGKGLEWVARIRSKYNNYATYYADSVKDRFTISRDDSQSILYLQMNNLKTEDTAMYYCVRHGNFGNSYVSWFAYWGQGTLVTVSS
light: B1 VL
chain: B2 chain
Consider B6, for which, in the test with CD3 on human PBMC, the “Digested vs. masked (ratio of killing EC50)” value was 9 fold and the “EC50 of M-TCE-induced killing … of human PBMC” value came out at 0.096 nM.
